# Results: article PMC3574147, “Association of RNAs with Bacillus subtilis Hfq”
# T1: Hfq (Bacillus subtilis, UniProt O31796 1-73)
# T1 sequence: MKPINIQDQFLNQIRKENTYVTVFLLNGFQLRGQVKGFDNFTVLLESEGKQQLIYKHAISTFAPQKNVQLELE
# B1: SR4 antitoxin RNA (structured_RNA)
# RNA: GGGUAAUGAUACAAUUAUAUAAUUAUUUUUUGCAUUUUGUUUAAUUAAAUGCAAAGCUGCCCAUCAAAGGGCUUGCUCGUUGUCAAAUCUUAAAAUAAAAAGACCAGGGUGUUGGUAGCACCCUGGCUCUGUACAAGCGUAGGCCUAACCCUUCAGGUGUCCAAACUCAAGGGAAGGUCUAUUUUUU
# Target: T1, Hfq
# Test: EMSA; 10 mM Mg2+, 2.5 ng/ul yeast tRNA; 50 mM Hepes pH 7.5, 150 mM NaCl, 10 mM MgCl2, 2.5 ng/ul yeast tRNA, ~2 fmol RNA in 10 ul, 30 min at 25 C; 5% native TBE PAGE
# Conditions: protein: recombinant; tags: His6 (pHisII vector); chain copies: 6; label: 32P (gamma-32P ATP)
binder,measurement,value
B1,binding result,binds
